Assay: purified protein yield per well (BCA); higher = higher soluble expression
Procedure, shortened: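 Candidate enzymes were made in 2 mL autoinduction cultures of E. coli C41(DE3) with 100 µg/mL kanamycin, at 37 °C for 2 h and then 18 °C for 40 h, and purified with Ni-charged magnetic beads and SUMO protease cleavage. The Pierce Rapid Gold BCA kit gave purified protein yield per well. Values lower than 25 ug (0.1 mg/mL) are below the detection threshold.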

Row | Sequence | purified protein yield per well [µg]
1 | MKSSGSAFRDPSGTVPTGRPAGRSWRYALALVAATTTLVALTVAGGTQQATGADNPYQRGPDPTRASVSANRGTFATAQVSVPAGNGFGGGVIYYPTDTSQGRFGAIAVVPGYTATWAAEGAWMGHWLASFGFVVIGIDTNSRNDWDNARGTQLLAALDYLTQRSSVRDRVDASRTSVMGHSMGGGGAANASLQRPTLKTAIGLAPASFSQNLTTTKVPTMLLAGQYDGTVTPSSVLNLYNGIPAGVEKAYLELTGAGHGFPTSNNPTMMRTIIPWFKIFVDSDTRYTQFLCPLADTNGIRTYQSTCPLVPSTPPTSTSTTTTTTGVPTGSTYVGQQSGRCLDVTGQSQTNGAKAQLWDCNGQSNQKWTLTSAAELRVYGGKCLDLPSNSAAGTQAQIWDCNGQSNQKWTHGTDGSIRHTQTGLCLDANGQGTANGTQVNSWNCNGQTNQKWTRR [TEP008] | < 25
2 | VQIGPNPTKASLEASSGPFTVGKFTISRPSGYAAGTVYYPTNAGAKVGVISIVPGFVSYQSSVAWWGPRLASHGFVVVTIDTNTTVDQPDSRSRQQLAALDQVVALGNNSSSPLYNKIDGTRTGVMGWSMGGGGSLISAKNRPSIKAAAPQAPWASLTSFSSLTVPTLIFSCQSDIVAPVATHANSFYNEMSRNPKQLLEKTLGDHFCMNSANPTVGLKGVAWMKRFIDGDTRYTTFACSNPNAFGFSDFRTARCS [ESM111] | < 25
3 | LKADGPYAVSSQTVKGNGFGAGTVYSPNTPGKYAVVAVCPGFVSAESSMTAISKRLATHGFVVVTIATNTLFDFPSSRATQLLAALKTVTALTTGPVAGKMDTSRQGVSGWSMGGGGTLEAAGATPGLVSAVAYAPWDTSTTKMKVNKVPVAIIGGSADTVASVSAHSQKFYDAIPATTPKMLPVINGADHFFPTKASEPASYHNI [ESM072] | < 25
4 | CSGSTPTAPAAPAPKATAAPNDRPAPTAQVPRSFERGPAPSEKSVTAKRGPFAFEKIEVPAGSGPGFNKGTIYAPTDTSRGTFGAVVMSPGFASPHTWIDWYGPRLASQGFVVMMLETNTLFDVPLLRGRQIVAALDYLTARSVVRGRVDPSRTAVMGHSMGGGGTLEAARQRPGLKAAVPLAPWNPDYNWGGVVVPTMIIGAQRDVIAPTALMSEAYYNRLTAAPEKAYLVLRGAGHLTFMSPNATIAKYVISWMKRFVDNDSRYDRFLCPPPKPRGLLTVYRGTCPTG [DP037] | < 25
5 | RPRDSAPANPYQRGPDPTVAMIESSTGPFATTSASVPAGHGFNGGTVYYPTDTSLGTWGALAIVPGYSALFANEEAWMGPWLSSFGFVVLGVETNSRTDSADARGTELLAALDYLTTQSPVRDRVDPNRLAVLGHSAGGAGAMLAAENRPSLKAAIGLAPGSPVGNLSLATDKVPTMVLGGQNDTVVTPSYLSGLYATMPASTQSVFAQIAGADHVYYTHPNNVEMKLLIPWLKTFLDSDTRHPPFLCPAPPDPRSISIYTPKCPYVPGGGTPPGGGNTGPLHAVGAAKCLAAPPAGAAGTQVTIGGCDGRAGQTWTRTAAAELTVTPAGTPLCLDASGQGTSPGTKVIVWSCNGQANQQWNLNADGSVTAARSGLCLDVTGASTAEGAPVELWSCNGGSNQRWSLG [TEP095] | < 25
6 | GRMDSNVIDASGYSDLSLSFDRTTSGLDFGESGRVSVSINGGSFTVLESLRRASGRTTLQLGSSADNSSIQIRYQTFASSFYEIYTIDNIVIEGNSDSPPPPPPTGDLAAIGAYLETGGTATTPDQFSFTNTGDINIDSLTIDLSGGNASPVFDPNGVSFTVTGSDNVGFSGNFGLSGNSLLTLNFIDFGPGETFSFSGDLDDSNGSYTTGADVMGAELTVSASGNPSVSASFTVDSSNADRAVVNIGGSTPPPPIGGGCGPDPTVASLEASTGPFSFSNIDVPSSAQGFRNGTIYYPTNAPSDCTFGVISVVPGFLANESSIDWWGPRLASHGFIVITINTNTITDQPNSRALQSIAALNYAVNLGNSSSSAIGGKVDSSKQGVMGWSMGGGGALRAAADNPYLKAAMPQAPFNSGPNDFDEITVPTLIIACENDTVASVGIHASPFYNAISSTTEKGFLEINNGNHSCANGGSNRDILGKYGVSWMKRFMDDDTRYSQFLCDVNHTSDSAISDYRENCPY [TEP172] | < 25
7 | WTPDPEPPGPVPEPCNTDCSQGPYPTTGSVEANMGPFSISSVSVPWTVSGFGGGTIYYPSSGTTGSLGAIALIPGFLGPEWTISAWGERLASHGFIVITVATNAVTDQPDSRATQLSRALDHVIIESGSTSSPIYGMVDPNRLGAMGISMGGGGTLKLTSDRTLSAAVPMVPWYLGFNDFESIDTPTLIIGCENDTIAPVALHSIPFYNAISDDVDKAYLEMNNGSHGCVAGLTNVDILGKYAVSWMKRFIDNDQRYDQFLCGPNHTAPFSVSDYRDNCDY [DP096] | < 25
8 | SAAGNNIGHRQGGDTFASATVIEALPFSDSGTTSGFNNDYGPYSNQSSYNICQWQGYYDNTNTGAGPDVVYSLALSEEKTVKISLCGSDYDTGLGVFDGSGVQVLGNDDACSLQSEVVCALPEGLYYIVVDGYSTSSGNYVLNVSIEEDLFGPYSVGTITEDDGLRDGPDYCCGIVYYPTDAVGYLPAIVYIPGYAGTISSNENWGPYLASHGIVTMFVNANFSLASNETRAEALLDGLVTIQDENQRPGSPLYGNLNLNQLAVAGHSRGGGAALLAAAAEPSVNAVLALAPWLEDQFINSTTLDQDVPVLFLSGQLDESAPNDVHTNLFYAYTPETTDKLLYEISGGDHFIVKDPSNNSAMAMKALYWLEKYLTNDPTHC [TEP001] | < 25
9 | MFSASTFAYNPAPPPPSPTPTPTPGPLPGQPNDGFQRGPNPSVSLLEAERGPFSVRNARVSSSVRGFGGGTIYYPTGTTGTMGAIVVIPGYVSPESSIAWWGPKMASHGFVVMTIATNRTTDQPSSRATQINAALDYLISQNSTSGSPVRNMIDTDRLGVMGWSMGGGGTLRVASQNRLKAAIPLAPYDTISFRNVDAPTLIFGCESDTVAPVRNHASPFYNQIPAGTDKAFVELNGGSHTCANGGNQYNDVLSRLGVSWMKRHLDNDTRYSQFLCGPNHTSDRDISEYRGNCPY [DP070] | < 25
10 | ATASFQRGPAPSAASIRATDGPFAITRTNVARAAVSGFGGGDIYAPDDTSQGTFGAVAIAPGFTATRSSMAWLAPRIASQGFVVFNIDTLTTSDQPATRGRELLAALDFLTAQSTARAKIDKNRLAVMGHSMGGGGTLEAAKSRPALKAAVPLTPWDLTKNFAGVTVPTMIIGAQSDTIAPVRQHSERFFASLPSGADTGYLELAGASHFAPNIPNTTIASTSVAWLKRFVDEDTRFEQFLCPGPATGATVSEYETNCPHQG [DP071] | < 25
11 | SNPAPEPSPTPSPSPSQPSNPFQRGPNPTVASVESAGPFAVRTSRVSSAVSGFGGGTIYYPSGTTGTMAAIVVIPGYVSSQSSIEWWGPRLASNGFVVMTIDTNATTDQPPARARQINAALDYLIAQNRASGSPVNGMIDTSRLGVVGWSMGGGGTLRVASEGRIKAAIPLAPWDTTTFRNVKAPTLIFACESDTIAPVRNHASPFYNQVPTSIPKAFVQLNRGNHYCANGGNAFNADLSRLGVSWMKRFLDNDRRFSQFLCGPN [ESM016] | < 25
12 | QTSPDCSAITISSSTNTGVNLVSTYLESDGIRNGTDYYGSTIYYPQNTTSILASIIIVPGYLNFESSMQNWGPFLASHGIVCMTIGTNNIFDLVNDRKEALQDALISLKAENTRVNSPLFNKLNTSRVALAGWSMGGGGAQLAAVEDSTIKAIIALCPWIDPMQISVNSLIHDVPVLFFSGQFDAVAPSSTHANIHYNYTPSTTDKLIYEISSGGHTVANVPSGGQGEVGRMALSWLKKYLIEDYCYCPLLLDTPLTASIYQTNVTCSTYGCTDSIALNYDPLATTDDGTCIYCVYGCTDSTSVNYAPLAICDDGTCIASVYGCTNATACNYYAGANINDGSCEWTSCNPTSCGASAITGLGVTNVIHDRVTLTFDNMNTYDTSGAQICRVDQLRIKYREVGTSSWSQKNMAAPTGYDPTTGICNSTQNTDKLVLGLSGSTTYEWEMRVWYCVTGATAWVVGPDFTTADNCPNIGSFTAYGSNPIRATFDWDDSNGSYEFVRIKMRVDSISNPQGTDWFQVGGFGVTYGTFTKDKNGLVAGETYRAQARTWCDPNGGAYNSLSWTALATW [TEP033] | < 25
13 | QACDSLLLESITNPGPFIVNTIDESLGIRNGPGYNGGTIFYPDHIGNFSSIVLVPGFMNSEFTIQNWGAFFASHGIITMTIGTNALTDTHIQRRDALLDAIVSLKAENERLGSPLYGSIDTSSIAVGGFSKGGGGAMLVPAIDPNIKAIISLYPWLENPTSSDLNHSVPVIIISGELDLIAPPFIHADIHYNLLPNTTMKLKYEVALGSHDIISGPNAGNGEVGVRVISWLQNFLLDDSCYCPILTLIPNTSSSYTTNILCNNTSINISSFNTGSDKKLLKITDIFGRETKEILNKYLLFIYDDGTVEKNIVLE [TEP022] | < 25
14 | AENPYERGPDPTESSIEASRGSFAVSQTSVSSLAVIGFGGGTIYYPTSTAQGTFGAVAISPGFTATQSSIAWIGPRLASQGFVVFTIDTNTIYDQPDSRGDQLLAALDYLTQRSDVRSRIDTSRLAVAGHSMGGGGSLEAAQDRPSLQAAVPLAPWNTQKSWSSLRVPTFIIGGESDTVAPVASHSIPFYTSIPASAEKAYMELDNASHFFPNTANTTMAKYTISWLKRFVDNDTRYEQFLCPAPDDRTISDYRDTCPHA [TEP129] | < 25
15 | DANPYQRGPAPTESSVAAEKGPFAVAQTDVPAGSGQGFNDGTIYYPTDTSQGTFGAVVVMPGFVSPQEWIRWYGPLLASQGFVVMTLDSNTLLDFPGARGDQILAALDYLTTKSKVVDRIDTGRLAVMGWSMGGGGTLEAAAERPSLKADIALAPWDLDNVAAKVKVPSMIIADDTDILAPTGVFAKPFYDAMSTAPDKAFFELKSANHFTFTSYNKTIAKYAVSWLKRFVDDDTRYDQFLCPKPAPSNEITQFEETCPLG [TEP059] | < 25
16 | MPGDALTDPWQNGRSDDGERGDTRRLHHIVRPVDLGGLSTEAEGHPLVLGFASDAGVRRNRGRPGAAEGPAAIRRMLSNLAAHELQTLLDAGDITCEGEALEAAQQACALALAKALSLGAFPVLLGGGHEIAVASFMGLRRYLDDQGDAGKVLVLNIDAHLDLRTSRPPSSGTPFDEIARYCEAHGHAWRYACIGVSKPSNTAALFARADEIGQAPTATNIYGNGSFSVASSSISPLVSGFGGGVVYYPTAPGLYPVVAVSPGFTATWSSISWIGPRLASWGFVVVGIETNTLLDQPSSRGQQLLAALNWAVSSSAPSAVRSRADGTRRGVAGHSMGGGGSLEALAMDTTGNVKAAVPIAPWNTDKTWNNVNEPVLIVGGQWDTVAPVATHSIPFYNTLAGPKAYVELNNATHFFPQFDDAMTSRALVAWFKRWLNNDTRFTPFTCGFSGLSISDFRSNAC [TEP180] | < 25
17 | DSTSDQHGPDPTKASIEAERGPFDVARVTVPRAGASGFGGGTIYYPSSTEEGKFGAVAIAPGFTASQSSMAWFGPRLASQGFVVFTIDTVTTSDQPDMRGDELRAALRYLTGSSKVKDRIDADRLAVMGHSMGGGGTLEAAKDDPALRAAIPLTPWDLNKNFSRVKTPTMIIGGQSDTIAPVASHSEPFYRSLPDTASKAYLELRGASHFAPNMPNTTIAEYSISWLKRFVDDDRRYDQFLCPAPGASVQISQYLSTCPY [TEP166] | < 25

— the supplement of paper PMC12455559
